Experiment [1] addresses T1, human Ang-2 (human, UniProt O15123).
T1 chain: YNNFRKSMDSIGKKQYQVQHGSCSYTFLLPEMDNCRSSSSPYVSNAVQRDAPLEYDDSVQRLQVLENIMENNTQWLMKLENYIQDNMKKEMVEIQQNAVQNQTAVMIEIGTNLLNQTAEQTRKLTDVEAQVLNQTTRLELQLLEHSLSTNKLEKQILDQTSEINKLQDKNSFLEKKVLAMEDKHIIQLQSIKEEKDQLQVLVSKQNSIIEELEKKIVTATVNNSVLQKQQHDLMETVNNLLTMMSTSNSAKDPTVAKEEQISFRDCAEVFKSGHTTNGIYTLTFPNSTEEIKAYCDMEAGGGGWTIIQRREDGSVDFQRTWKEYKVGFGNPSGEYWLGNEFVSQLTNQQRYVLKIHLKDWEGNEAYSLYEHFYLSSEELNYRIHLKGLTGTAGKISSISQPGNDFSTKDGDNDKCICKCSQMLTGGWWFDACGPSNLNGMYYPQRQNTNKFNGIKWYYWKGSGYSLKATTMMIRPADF
The experiment can be described thus: competition ELISA vs Tie-2. On the technique in general: In an ELISA, binding on a coated surface is turned into a signal by an enzyme label.

For experiment [2], the target named is T1, human Ang-2. The experiment can be described thus: competition ELISA vs Tie-2.

For 37 molecules, IC50 results are on record in patent publication US7205275 (dated 2007).

Read-outs that look alike come from different tables or passages of the source. Primed or numbered codes have the meaning given here. Where no end group is shown, it is not given here. [ ]: non-standard residue; d: D form. Fc(3) = Fc: non-antigen-binding fragment of an antibody from proteolytic digestion of a whole antibody (vehicle); Fc(4) = non-antigen-binding fragment of an antibody (from proteolytic digestion of a whole antibody); Fc = immunoglobulin Fc domain fused to the peptide (peptibody); Fc(7) = Fc domain, peptide fused N- or C-terminal to it; Fc″ = Fc domain of the peptibody fusion

Broadly, the IC50 is the midpoint of a concentration-inhibition curve. High values mean weaker potency in that assay, low ones greater potency in that assay. In turn, M[Fc]GGGGGAQPVNQEDCEWDPWTCEHMPPMLE (not fully specified; cysteine pairing not given here) [Con4-39 (C)] showed an IC50 in the experiment with human Ang-2 [1] of 0.3 nM.

As to MGAQQKFQPLDELEETLYKQWTLQQRLEGGGGG[Fc(3)] [L1-16 (N)], the IC50 with human Ang-2 [2] turned out to be 0.11 nM. Same read-out and setting: as for M[Fc(7)]GGGGGAQFDYCEGVEDPFTFGCDNHLE (not fully specified (bridges); cysteine pairing not given here) [12-9 (C)], the figure is 15 nM. Turning to MGAQTKFNPLDELEQTLYEQWTLQHQLEGGGGG-{Fc″} [L1-3 (N)], the IC50 with human Ang-2 [2] came out at 0.16 nM. Take M[Fc(7)]GGGGGAQRAPQEDCEWDPWTCAHMDIKLE (not fully specified (bridges); cysteine pairing not given here) [Con4-25 (C)]: the IC50 with human Ang-2 [1] amounted to 0.31 nM.

B1: Con1-2 (C) (peptide)
chain: M[Fc]GGGGGAQQTWDDPCMHILGPVTWRRCILE
modifications: not fully specified (bridges); cysteine pairing not given here; also: Fc fusion domain at position 2
Consider B1, for which, in the experiment with human Ang-2 [2], the IC50 is more than 1000 nM. In the experiment with human Ang-2 [1], M[Fc(7)]GGGGGAQGPRISTCQWDPWTCEHMDQLLE (not fully specified (bridges); cysteine pairing not given here) [Con4-17 (C)] came in with an IC50 of 0.96 nM. On the same count and under the same terms, as for M[Fc(7)]GGGGGAQFGWSHGCEWDPWTCEHMGSTLE (not fully specified (bridges); cysteine pairing not given here) [AC2-Con4 (C)], the figure is 0.52 nM; as for M[Fc(4)]GGGGGAQWAQQEECAWDPWTCDHMVGLLE (not fully specified; cysteine pairing not given here) [Con4-45 (C)], 0.48 nM; as for M[Fc(7)]GGGGGAQRPEDMCSQWDPWTWHLQGYCLE (not fully specified (bridges); cysteine pairing not given here) [Con4-26 (C)], more than 1000 nM. Consider MGAQEDYMPLDALDAQLYEQFILLHGLEGGGGG-{Fc(3)} [L1-20 (N)], for which the IC50 with human Ang-2 [2] was determined as 0.09 nM. M[Fc(7)]GGGGGAQTQGLHQCEWDPWTCKVLWPSLE (not fully specified (bridges); cysteine pairing not given here) [Con4-10 (C)] gave an IC50 with human Ang-2 [1] of 86.6 nM.

On to MGAQVKFKPLDALEQTLYEHWMFQQALEGGGGG-Fc [L1-4 (N)], for which the IC50 with human Ang-2 [2] is 0.08 nM.

M[Fc(7)]GGGGGAQAVGSQTCEWDPWTCAHLVEVLE (not fully specified (bridges); cysteine pairing not given here) [Con4-16 (C)]: the IC50 with human Ang-2 [1] is 6.94 nM.

Molecule M[Fc(7)]GGGGGAQMGGAGRCEWDPWTCQLLQGWLE (not fully specified (bridges); cysteine pairing not given here) [Con4-13 (C)] registered an IC50 with human Ang-2 [1] of more than 1000 nM. On the same count and under the same terms, as for M[Fc]GGGGGAQLPGQEDCEWDPWTCEHMVRSLE (not fully specified; cysteine pairing not given here) [Con4-37 (C)], the figure is 0.49 nM. Take M[Fc(7)]GGGGGAQAQDYCEGMEDPFTFGCEMQKLE (not fully specified (bridges); cysteine pairing not given here) [12-9-4 (C)]: in the experiment with human Ang-2 [2], the half-inhibitory concentration (IC50) came out at 2.05 nM.

Molecule M[Fc(7)]GGGGGAQTKGKSVCQWDPWTCSHMQSGLE (not fully specified (bridges); cysteine pairing not given here) [Con4-21 (C)] gave an IC50 with human Ang-2 [1] of 3.21 nM. M[Fc(7)]GGGGGAQMFLPNECQWDPWTCSNLPEALE (not fully specified (bridges); cysteine pairing not given here) [Con4-14 (C)] gave an IC50 with human Ang-2 [1] of more than 1000 nM. Consider MGAQVKYKPLDELDEWLYHQFTLHHQLEGGGGG[Fc(3)] [L1-17 (N)], for which the IC50 in the experiment with human Ang-2 [2] is 0.08 nM. Still for that read-out and setting: as for M[Fc(7)]GGGGGAQGFEYCDGMEDPFTFGCDKQTLE (not fully specified (bridges); cysteine pairing not given here) [12-9-1 (C)], the figure is 1.84 nM.

In the experiment with human Ang-2 [2], MGAQTNYKPLDELDATLYEHWILQHSLEGGGGG[Fc(7)] [AC6-L1 (N)] gave an IC50 of 0.03 nM. M[Fc(7)]GGGGGAQNRLQEVCEWDPWTCEHMENVLE (not fully specified (bridges); cysteine pairing not given here) [Con4-31 (C)]: the IC50 with human Ang-2 [1] amounted to 0.16 nM.

M[Fc(4)]GGGGGAQTTIGSMCEWDPWTCAHMQGGLE (not fully specified (bridges); cysteine pairing not given here) [Con4-C1 (C)]: the IC50 with human Ang-2 [1] is 2.75 nM. The molecule M[Fc(7)]GGGGGAQVLGGQGCEWDPWTCRLLQGWLE (not fully specified (bridges); cysteine pairing not given here) [AC4-Con4 (C)] came in with an IC50 in the experiment with human Ang-2 [1] of 1.54 nM. Take M[Fc(7)]GGGGGAQLQEWCEGVEDPFTFGCEKQRLE (not fully specified (bridges); cysteine pairing not given here) [12-9-3 (C)]: in the experiment with human Ang-2 [2], the IC50 came out at 0.81 nM. In the experiment with human Ang-2 [1], M[Fc(7)]GGGGGAQTSQRVGCEWDPWTCQHLTYTLE (not fully specified (bridges); cysteine pairing not given here) [Con4-23 (C)] came in with an IC50 of 9.88 nM. Same read-out and setting: next, M[Fc(4)]GGGGGAQLRHQEGCEWDPWTCEHMFDWLE (not fully specified; cysteine pairing not given here) [Con4-42 (C)]: 0.17 nM.

MGAQQKFKPLDELEQTLYEQWTLQQRLEGGGGG-Fc [L1-C1 (N)] returned an IC50 in the experiment with human Ang-2 [2] of 0.56 nM.

On to M[Fc(7)]GGGGGAQGPAQEECEWDPWTCEPLPLMLE (not fully specified (bridges); cysteine pairing not given here) [Con4-30 (C)], for which the IC50 with human Ang-2 [1] is more than 1000 nM. Molecule MGAQYKFTPLDDLEQTLYEQWTLQHVLEGGGGG[Fc(3)] [L1-12 (N)] showed an IC50 with human Ang-2 [2] of 0.08 nM. In the experiment with human Ang-2 [1], M[Fc(4)]GGGGGAQQHWQEECEWDPWTCDHMPSKLE (not fully specified; cysteine pairing not given here) [Con4-46 (C)] came in with an IC50 of 0.26 nM. For the molecule M[Fc(4)]GGGGGAQSISHEECEWDPWTCEHMQVGLE (not fully specified; cysteine pairing not given here) [Con4-43 (C)], the IC50 with human Ang-2 [1] amounted to 0.18 nM.

As to MGAQQKYQPLDELDKTLYDQFMLQQGLEGGGGG[Fc(3)] [L1-15 (N)], in the experiment with human Ang-2 [2], the IC50 turned out to be 0.04 nM. For MGAQSKFKPLDELEQTLYEQWTLQHALEGGGGG-Fc [L1-9 (N)], the IC50 with human Ang-2 [2] was determined as 1.62 nM. In the case of M[Fc(7)]GGGGGAQFGWSHGCEWDPWTCRLLQGWLE (not fully specified (bridges); cysteine pairing not given here) [Con4-2 (C)], the IC50 in the experiment with human Ang-2 [1] is more than 1000 nM. For the molecule M[Fc(7)]GGGGGAQHQEYCEGMEDPFTFGCEYQGLE (not fully specified (bridges); cysteine pairing not given here) [12-9-6 (C)], the IC50 in the experiment with human Ang-2 [2] turned out to be 0.95 nM.
